In article PMC8167812 (Cell reports, 2021):

Target: Histone H3 tail peptide H3K9MK14C with a C-terminal biotinylated lysine (fission yeast, C-terminal biotinylated lysine)
Test: BLI

t1/2: 9.6 s
B1: Clr4 SET domain (residue 190–490) (domain or fragment)
chain: NPSKLDSYTHLSFYEKRELFRKKLREIEGPEVTLVNEVDDEPCPSLDFQFISQYRLTQGVIPPDPNFQSGCNCSSLGGCDLNNPSRCECLDDLDEPTHFAYDAQGRVRADTGAVIYECNSFCSCSMECPNRVVQRGRTLPLEIFKTKEKGWGVRSLRFAPAGTFITCYLGEVITSAEAAKRDKNYDDDGITYLFDLDMFDDASEYTVDAQNYGDVSRFFNHSCSPNIAIYSAVRNHGFRTIYDLAFFAIKDIQPLEELTFDYAGAKDFSPVQSQKSQQNRISKLRRQCKCGSANCRGWLFG
